{
  "source": "IntAct's records for PubMed 11711533",
  "parents": {"B1": {"name": "Proline-serine-threonine phosphatase-interacting protein 1 (Mus musculus), P97814 (parent)", "chain": "MMAQLQFRDAFWCRDFTAHTGYEVLLQRLLDGRKMCKDVEELLRQRAQAEERYGKELVQIARKAGGQTEMNSLRTSFDSLKQQTENVGSAHIQLALALREELRSLEEFRERQKEQRKKYEAIMDRVQKSKLSLYKKTMESKKAYDQKCRDADDAEQAFERVSANGHQKQVEKSQNKAKQCKESATEAERVYRQNIEQLERARTEWEQEHRTTCEAFQLQEFDRLTILRNALWVHCNQLSMQCVKDDELYEEVRLTLEGCDVEGDINGFIQSKSTGREPPAPVPYQNYYDREVTPLIGSPSIQPSCGVIKRFSGLLHGSPKTTPSAPAASTETLTPTPERNELVYASIEVQATQGNLNSSAQDYRALYDYTAQNSDELDISAGDILAVILEGEDGWWTVERNGQRGFVPGSYLEKL", "partner": "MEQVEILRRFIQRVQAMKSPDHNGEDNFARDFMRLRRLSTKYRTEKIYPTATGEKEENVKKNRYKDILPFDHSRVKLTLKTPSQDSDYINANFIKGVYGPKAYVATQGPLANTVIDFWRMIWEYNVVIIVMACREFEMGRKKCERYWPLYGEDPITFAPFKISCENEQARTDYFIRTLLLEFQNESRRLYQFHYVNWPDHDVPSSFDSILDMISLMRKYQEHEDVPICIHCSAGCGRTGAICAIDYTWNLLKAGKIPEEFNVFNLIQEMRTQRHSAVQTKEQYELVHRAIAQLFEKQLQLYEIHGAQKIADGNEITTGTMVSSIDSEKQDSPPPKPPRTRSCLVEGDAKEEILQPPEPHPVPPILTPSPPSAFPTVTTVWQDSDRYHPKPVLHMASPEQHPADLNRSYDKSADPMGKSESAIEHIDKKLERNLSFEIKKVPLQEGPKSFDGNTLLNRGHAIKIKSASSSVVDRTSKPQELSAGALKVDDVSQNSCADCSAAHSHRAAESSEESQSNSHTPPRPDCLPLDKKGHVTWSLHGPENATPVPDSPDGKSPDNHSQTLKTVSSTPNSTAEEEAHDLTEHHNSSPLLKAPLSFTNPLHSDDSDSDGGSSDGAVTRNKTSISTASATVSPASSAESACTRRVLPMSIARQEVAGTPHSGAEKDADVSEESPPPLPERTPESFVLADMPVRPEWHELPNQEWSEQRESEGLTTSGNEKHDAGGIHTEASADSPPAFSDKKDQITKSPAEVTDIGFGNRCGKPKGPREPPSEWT"}, "B2": {"name": "Tyrosine-protein phosphatase non-receptor type 12 (Mus musculus), P35831 (parent)", "chain": "B1 partner"}},
  "data": [
    {"variants_of": "B1", "conditions": "with ptn12_mouse Ptpn12, P35831", "values": [
      {"variant": "Y344F", "effect of a mutation on the interaction": "disrupting interaction"}
    ]},
    {"variants_of": "B2", "conditions": "with ppip1_mouse Pstpip1, P97814", "values": [
      {"variant": "C231S", "effect of a mutation on the interaction": "decreasing interaction"}
    ]}
  ]
}
